Results taken from US20180036395A1, “DOSAGE AND ADMINISTRATION OF MONOSPECIFIC AND BISPECIFIC ANTI-IGR-1R AND ANTI-ERBB3 ANTIBODIES” (Merrimack Pharmaceuticals, Inc., priority 2012, published 2018).

Legend:
[1] = tested on: DU145 prostate cancer cells; experiment: DU145 prostate cancer xenograft study; type: in vivo, human; conditions: combination of docetaxel (10mpk q7d) and P4-G1-M1.3 (30mpk, q3d); FIG. 4
Protocol: The y-axis represents mean tumor volume in mm^3 and the x-axis represents time in days.
For each of the xenograft studies below, cells are resuspended 1:1 with PBS:Growth factor-reduced Matrigel® and injected subcutaneously into Nu/Nu mice. Tumors are allowed to develop for 8 days. Antibodies are injected intraperitoneally every 3 days (q3d) at the indicated doses/mouse. Tumor lengths and widths are measured twice a week manually by caliper, and tumor volume calculated using the following formula: π/6(L×W^2). Each arm of a study contains 10 animals. All studies are carried out using methods approved by an internal IACUC panel.
Statistical significance across groups was determined using the student's T-test (*,p<0.05 vs control.; #,p<0.05 vs docetaxel; a,p<0.05 vs P4-G1-M1.3).

[2] = tested on: HepG2 hepatocellular carcinoma cells; experiment: HepG2 quantitative western blotting; type: cell-based, human; conditions: 2 hours or 6 hours, compared to either alone, FIG. 5
Protocol: Cells were treated with 500 nM P4-G1-M1.3, […] sorafenib or the combination for either 2 hours or 6 hours and quantitative western blotting was performed.
Buffer containing β-Mercaptoethanol (β-ME) is added and lysates are boiled for 5 minutes at 95° C. Approximately 40 μg of protein and two ladders (Invitrogen) are run on each well of an 18-well gel (BioRad). Gels are run at 150 volts constant for approximately 90 minutes and transferred to nitrocellulose membranes using the 8 minute transfer program of the iBlot® (Invitrogen) transfer system. Membranes are blocked in Odyssey® Blocking Buffer (Licor® Biosciences) for 1 hour at room temperature, and then incubated with primary antibodies overnight at 4° C. in 5% BSA in TBS-T. All antibodies are purchased from Cell Signaling and used at the recommended dilution. The following day membranes are washed 3×5 minutes each with TBS-T and then incubated with anti-Rabbit IgG—DyLight® 800 (Cell Signaling) or anti-Rabbit IRDye® 800 (Licor® Biosciences) at 1:10,000-15,000 in 5% milk in TBS-T for 1 hour at room temperature. Membranes were then washed 3×5 minutes each with TBS-T and scanned using the Licor® Odyssey® system (Licor® Biosciences). Intensities are quantified using Image Studio 2.0 and normalized to β-Actin levels. […]

[3] = tested on: gastrointestinal neuroendocrine tumors; experiment: Treatment of patients with gastrointestinal neuroendocrine tumors; type: in vivo, human
Protocol: P4-G1-M1.3 is formulated in 20 mM histidine, 100 mM arginine-HCl, 3% sucrose, at pH 5.5 supplemented with 0.002-0.02% of Tween® 80 at concentration range 5-15 mg/mL. P4-G1-M1.3 is administered to patients at 6 mg/kg, 12 mg/kg, 20 mg/kg, 30 mg/kg, 40 mg/kg, 50 mg/kg or 60 mg/kg q7d, ql4d, q21d, or q28d with a loading dose of 12 mg/kg, 20 mg/kg, 40 mg/kg, 40 mg/kg or 60 mg/kg Everolimus is administered to patients at 2.5 mg, 5 mg, or 10 mg orally once a day or once every other day.
Patients with gastrointestinal neuroendocrine tumors are treated by administration of either monotherapy with an effective amount of everolimus or an effective amount of P4-G1-M1.3, or with combination therapy comprising or consisting of administration of both the effective amount of everolimus and the effective amount of P4-G1-M1.3. P4-G1-M1.3 and everolimus are prepared and dosed as described in Example 1.
Patients with gastrointestinal neuroendocrine tumors are treated by administration of either monotherapy with an effective amount of mTOR inhibitor temsirolimus (Torisel®) or an effective amount of P4-G1-M1.3, or with combination therapy comprising or consisting of administration of both the effective amount of temsirolimus and the effective amount of P4-G1-M1.3. P4-G1-M1.3 is prepared and dosed as described in Example 1. Temsirolimus is dosed at 2.5 mg, 7.5 mg, 15 mg, or 25 mg (25 mg is the manufacturer's recommended dose) infused over a 30-60 minute period once a week.
Patients with gastrointestinal neuroendocrine tumors are treated by administration of either monotherapy with an effective amount of mTOR inhibitor sirolimus (Rapamune®) or an effective amount of P4-G1-M1.3, or with combination therapy comprising or consisting of administration of both the effective amount of sirolimus and the effective amount of P4-G1-M1.3. P4-G1-M1.3 is prepared and dosed as described in Example 1.

B1: P4-G1-M1.3: anti-IGF-1R+anti-ErbB3 polyvalent bispecific antibody, IgG1-(scFv)2 (SEQ ID NO:148 and SEQ ID NO:149) (protein)
chain 1: EVQLLQSGGGLVQPGGSLRLSCAASGFLFSSYPMHWVRQAPGKGLEWVGSISPSGGATPYADSVKGRFTISRDNSKNTLYLQMNSLRPEDTAVYYCAKDFYNILTGNAFDKWGQGTSVTVSSASTGGGGSGGGGSGGGGSGGGGSDIQLTQSPSSLSASLGDRVTITCRASQGISSYLAWYQQKPGKAPKLLIYAGSTPQSGVPSRFSGSGSGTEFTLTISSLQPEDSGTYYCQQYWTWPLTFGGGTKVEIKRT
chain 2: EVQLVESGGGLVQPGRSLRLSCAASGFTFDDYAMHWVRQAPGKGLEWVSGISWNSGSTGYADSVKGRFTISRDNAKNSLYLQMNSLRAEDTALYYCARDLGYNQWLEGFDYWGQGTLVTVSSASTGGGGSGGGGSGGGGSGGGGSSSELTQDPAVSVALGQTVRITCQGDSLRSYYASWYQQKPGQAPVLVIYGKNNRPSGIPDRFSGSSSGNTASLTITGAQAEDEADYYCMSRDHPGNQWVFGGGTKVTVLG
modifications: Synthetic polypeptide:Anti-IGF-1R scFvs M76; Synthetic polypeptide:Anti-ErbB3 scFvs P6L
[1]
  growth of DU145 prostate cancer cells in vivo (mean tumor volume): inhibition of growth
[2]; combination of 500 nM P4-G1-M1.3 and 504 sorafenib
  downstream signaling (pErbB3, pAkt Ser473, pERK1/2): inhibits downstream signaling
[2]; combination of 500 nM P4-G1-M1.3 and sorafenib
  ErbB3 level: downregulation of ErbB3
[3]; everolimus + P4-G1-M1.3
  treatment outcome: combinatorially enhanced outcome
[3]; sirolimus + P4-G1-M1.3
  treatment outcome: combinatorially enhanced outcome
[3]; temsirolimus + P4-G1-M1.3
  treatment outcome: combinatorially enhanced outcome
